Blank lines part the entries; values can stand above or below the binder they belong to.
Assays:
Test in all cases: two-hybrid library CCmax;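 note: natural log of median RNA to DNA barcode read ratio; higher means stronger binding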
4H3015-AA = target: T1, 4H3015-AA; conditions: mean of both orientations
T1 chain: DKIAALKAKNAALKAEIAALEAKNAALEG

4H2732-AA = target: T2, 4H2732-AA; conditions: mean of both orientations
T2 chain: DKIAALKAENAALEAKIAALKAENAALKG

4H347-AA = target: T3, 4H347-AA; conditions: mean of both orientations
T3 chain: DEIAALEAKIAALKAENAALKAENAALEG

4H3001-AA = target: T4, 4H3001-AA; conditions: mean of both orientations
T4 chain: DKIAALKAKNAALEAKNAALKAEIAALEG

4H3782-AA = target: T5, 4H3782-AA; conditions: mean of both orientations
T5 chain: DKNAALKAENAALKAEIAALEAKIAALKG

4H2931-AA = target: T6, 4H2931-AA; conditions: mean of both orientations
T6 chain: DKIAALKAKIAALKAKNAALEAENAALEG

4H3414-AA = target: T7, 4H3414-AA; conditions: mean of both orientations
T7 chain: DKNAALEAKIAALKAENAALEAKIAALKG

4H3438-AA = target: T8, 4H3438-AA; conditions: mean of both orientations
T8 chain: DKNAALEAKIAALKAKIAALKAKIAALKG

4H3129-AA = target: T9, 4H3129-AA; conditions: mean of both orientations
T9 chain: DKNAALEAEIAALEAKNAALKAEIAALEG

4H2592-AA = target: T10, 4H2592-AA; conditions: mean of both orientations
T10 chain: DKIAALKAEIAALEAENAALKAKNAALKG

4H63-AA = target: T11, 4H63-AA; conditions: mean of both orientations
T11 chain: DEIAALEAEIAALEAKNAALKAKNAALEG

4H3939-AA = target: T12, 4H3939-AA; conditions: mean of both orientations
T12 chain: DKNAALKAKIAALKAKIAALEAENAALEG

4H3629-AA = target: T13, 4H3629-AA; conditions: mean of both orientations
T13 chain: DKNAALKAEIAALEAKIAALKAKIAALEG

4H2961-AA = target: T14, 4H2961-AA; conditions: mean of both orientations
T14 chain: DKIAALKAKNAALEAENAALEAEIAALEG

4H341-AA = target: T15, 4H341-AA; conditions: mean of both orientations
T15 chain: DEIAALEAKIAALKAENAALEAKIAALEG

O13-AA = target: T16, O13-AA; conditions: mean of both orientations
T16 chain: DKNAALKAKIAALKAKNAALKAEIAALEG

4H1385-AA = target: T17, 4H1385-AA
T17 chain: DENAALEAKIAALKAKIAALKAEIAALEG

4H1597-AA = target: T18, 4H1597-AA; conditions: mean of both orientations
T18 chain: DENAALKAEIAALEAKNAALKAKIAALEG

O14-AA = target: T19, O14-AA; conditions: mean of both orientations
T19 chain: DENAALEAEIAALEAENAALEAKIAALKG

4H3427-AA = target: T20, 4H3427-AA; conditions: mean of both orientations
T20 chain: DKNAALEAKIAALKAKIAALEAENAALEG

4H1845-AA = target: T21, 4H1845-AA; conditions: mean of both orientations
T21 chain: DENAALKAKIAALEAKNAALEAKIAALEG

4H3056-AA = target: T22, 4H3056-AA; conditions: mean of both orientations
T22 chain: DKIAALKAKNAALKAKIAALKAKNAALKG

4H3133-AA = target: T23, 4H3133-AA; conditions: mean of both orientations
T23 chain: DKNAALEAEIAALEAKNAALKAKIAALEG

4H3162-AA = target: T24, 4H3162-AA; conditions: mean of both orientations
T24 chain: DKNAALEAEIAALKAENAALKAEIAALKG

4H2620-AA = target: T25, 4H2620-AA; conditions: mean of both orientations
T25 chain: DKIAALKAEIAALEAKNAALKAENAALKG

4H2553-AA = target: T26, 4H2553-AA; conditions: mean of both orientations
T26 chain: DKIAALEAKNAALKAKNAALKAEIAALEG

4H3588-AA = target: T27, 4H3588-AA; conditions: mean of both orientations
T27 chain: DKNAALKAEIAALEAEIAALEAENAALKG

4H3413-AA = target: T28, 4H3413-AA; conditions: mean of both orientations
T28 chain: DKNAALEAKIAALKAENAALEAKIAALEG

4H566-AA = target: T29, 4H566-AA; conditions: mean of both orientations
T29 chain: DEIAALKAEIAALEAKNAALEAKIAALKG

P10-AA = target: T30, P10-AA; conditions: mean of both orientations
T30 chain: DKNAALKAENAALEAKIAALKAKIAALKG

4H678-AA = target: T31, 4H678-AA; conditions: mean of both orientations
T31 chain: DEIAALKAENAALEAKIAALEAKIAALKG

4H605-AA = target: T32, 4H605-AA; conditions: mean of both orientations
T32 chain: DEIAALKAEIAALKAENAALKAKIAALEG

4H906-AA = target: T33, 4H906-AA; conditions: mean of both orientations
T33 chain: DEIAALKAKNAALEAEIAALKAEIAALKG

4H794-AA = target: T34, 4H794-AA; conditions: mean of both orientations
T34 chain: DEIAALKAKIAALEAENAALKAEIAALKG

4H429-AA = target: T35, 4H429-AA; conditions: mean of both orientations
T35 chain: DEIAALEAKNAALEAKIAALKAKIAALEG

4H3844-AA = target: T36, 4H3844-AA; conditions: mean of both orientations
T36 chain: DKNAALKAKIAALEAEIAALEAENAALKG

Binder: DENAALEAKIAALKAKIAALKAEIAALEG [4H1385-AA]
- interaction score (O13-AA): -1.62
- interaction score (4H1385-AA): 2.06
- interaction score (4H1597-AA): -0.816
- interaction score (O14-AA): 2.08

Binder: DENAALKAEIAALKAENAALKAEIAALKG [4H1626-AA]
- interaction score (4H347-AA): -1.66
- interaction score (4H3001-AA): -2.01
- interaction score (4H2592-AA): -1.24

Binder: DENAALKAKIAALEAKNAALEAKIAALEG [4H1845-AA]
- interaction score (4H3056-AA): -1.58
- interaction score (4H3133-AA): -0.676
- interaction score (4H3162-AA): -1.73
- interaction score (4H3782-AA): -1.6
- interaction score (4H3427-AA): -1.86
- interaction score (4H2620-AA): -1.86
- interaction score (4H2553-AA): -1.84
- interaction score (4H3588-AA): -1.56
- interaction score (4H3413-AA): -0.729

Binder: DKIAALEAENAALKAEIAALKAKIAALEG [4H2253-AA]
- interaction score (4H3015-AA): -1.11
- interaction score (4H2732-AA): -1.3
- interaction score (4H347-AA): -1.66
- interaction score (4H3001-AA): -1.42
- interaction score (4H2931-AA): -1.52
- interaction score (4H3438-AA): -1.2
- interaction score (4H2592-AA): -1.61

The next lines start with the values.

- interaction score (4H3015-AA): -1.1
- interaction score (4H2732-AA): -0.302
- interaction score (4H347-AA): 0.274
- interaction score (4H3001-AA): -1.12
- interaction score (4H3782-AA): 1.43
- interaction score (4H2931-AA): -1.53
- interaction score (4H3414-AA): 0.535
- interaction score (4H3438-AA): -1.6
- interaction score (4H3129-AA): -2.01
- interaction score (4H2592-AA): -0.437
- interaction score (4H63-AA): -1.75
- interaction score (4H3939-AA): -1.85
- interaction score (4H3629-AA): -1.69
- interaction score (4H2961-AA): 1.36
- interaction score (4H341-AA): 0.538
Binder: DEIAALEAENAALKAKNAALKAEIAALEG [4H249-AA]

- interaction score (4H3782-AA): 2.21
- interaction score (4H3414-AA): -1.01
- interaction score (4H3427-AA): -1.17
- interaction score (4H3129-AA): -1.9
- interaction score (4H63-AA): -1.72
- interaction score (4H3939-AA): -1.27
- interaction score (4H3629-AA): 0.329
- interaction score (4H1845-AA): -1.49
- interaction score (4H2961-AA): -1.08
- interaction score (4H341-AA): -1.24
Binder: DENAALEAENAALKAKIAALKAEIAALEG [4H1257-AA]

- interaction score (4H566-AA): -0.683
- interaction score (P10-AA): 0.12
- interaction score (4H678-AA): -0.771
- interaction score (4H605-AA): 0.159
- interaction score (4H906-AA): -1.72
- interaction score (4H794-AA): -0.14
- interaction score (4H429-AA): 0.643
- interaction score (4H3844-AA): -1.17
Binder: DKNAALKAEIAALEAENAALEAKIAALKG [4H3606-AA]
